Drawing on paper PMC3090270 (Structure (London, England : 1993), 2010), this text covers Kd for 1 molecule.

What all share (test): fluorescence polarisation
On the technique in general: Fluorescence polarisation rises when a labelled molecule tumbles more slowly, as on binding a larger partner.

Experiment [1] has as its target Bovine full-length RIα, wild type (bovine, UniProt P00514 1-380).
Experiment [2] addresses Bovine full-length RIα H23A (bovine).
The target of experiment [3] is Bovine full-length RIα Y19A (bovine).
In experiment [4] the target is Bovine full-length RIα C16A (bovine).
The target of experiment [5] is Bovine full-length RIα C37A (bovine).

Chain of Bovine full-length RIα, wild type (P00514 whole entry): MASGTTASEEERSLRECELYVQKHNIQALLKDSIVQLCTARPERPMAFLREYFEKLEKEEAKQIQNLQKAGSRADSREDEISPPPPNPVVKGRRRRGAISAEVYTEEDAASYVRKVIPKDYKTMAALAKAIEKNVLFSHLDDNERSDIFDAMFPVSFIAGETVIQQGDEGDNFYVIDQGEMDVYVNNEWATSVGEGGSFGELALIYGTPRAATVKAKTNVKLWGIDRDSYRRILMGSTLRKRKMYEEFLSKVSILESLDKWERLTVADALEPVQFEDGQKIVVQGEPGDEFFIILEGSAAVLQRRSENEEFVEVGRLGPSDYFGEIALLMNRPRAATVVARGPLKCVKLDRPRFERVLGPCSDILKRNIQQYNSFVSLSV

B1: D-AKAP2 AKB peptide (residues 623-650), last residue changed to Cys, fluorescently labeled (peptide)
chain: VQGNTDEAQEELAWKIAKMIVSDVMQQC
modifications: fluorescin-5-maleimide or tetramethylrhodamine-5-maleimide on the Cys that replaces the last residue
The term Kd denotes the free concentration of one partner at which half of the binding sites on the other are occupied at equilibrium, for simple one-to-one binding. Read a low Kd as a tighter complex. Turning to B1, the Kd in experiment [1] was determined as 48 nM; in experiment [2], 198 nM; in experiment [3], 1330 nM; in experiment [4] it was 126 nM; in experiment [5] it was 745 nM.
